{
  "source": "patent US20210030857A1",
  "about": "(NGM BIOPHARMACEUTICALS, published 2021)",
  "biological_target": "T1, human beta klotho mutant H657A on HEK-293T cells (human, UniProt Q86Z14 1-1044)",
  "T1 sequence": "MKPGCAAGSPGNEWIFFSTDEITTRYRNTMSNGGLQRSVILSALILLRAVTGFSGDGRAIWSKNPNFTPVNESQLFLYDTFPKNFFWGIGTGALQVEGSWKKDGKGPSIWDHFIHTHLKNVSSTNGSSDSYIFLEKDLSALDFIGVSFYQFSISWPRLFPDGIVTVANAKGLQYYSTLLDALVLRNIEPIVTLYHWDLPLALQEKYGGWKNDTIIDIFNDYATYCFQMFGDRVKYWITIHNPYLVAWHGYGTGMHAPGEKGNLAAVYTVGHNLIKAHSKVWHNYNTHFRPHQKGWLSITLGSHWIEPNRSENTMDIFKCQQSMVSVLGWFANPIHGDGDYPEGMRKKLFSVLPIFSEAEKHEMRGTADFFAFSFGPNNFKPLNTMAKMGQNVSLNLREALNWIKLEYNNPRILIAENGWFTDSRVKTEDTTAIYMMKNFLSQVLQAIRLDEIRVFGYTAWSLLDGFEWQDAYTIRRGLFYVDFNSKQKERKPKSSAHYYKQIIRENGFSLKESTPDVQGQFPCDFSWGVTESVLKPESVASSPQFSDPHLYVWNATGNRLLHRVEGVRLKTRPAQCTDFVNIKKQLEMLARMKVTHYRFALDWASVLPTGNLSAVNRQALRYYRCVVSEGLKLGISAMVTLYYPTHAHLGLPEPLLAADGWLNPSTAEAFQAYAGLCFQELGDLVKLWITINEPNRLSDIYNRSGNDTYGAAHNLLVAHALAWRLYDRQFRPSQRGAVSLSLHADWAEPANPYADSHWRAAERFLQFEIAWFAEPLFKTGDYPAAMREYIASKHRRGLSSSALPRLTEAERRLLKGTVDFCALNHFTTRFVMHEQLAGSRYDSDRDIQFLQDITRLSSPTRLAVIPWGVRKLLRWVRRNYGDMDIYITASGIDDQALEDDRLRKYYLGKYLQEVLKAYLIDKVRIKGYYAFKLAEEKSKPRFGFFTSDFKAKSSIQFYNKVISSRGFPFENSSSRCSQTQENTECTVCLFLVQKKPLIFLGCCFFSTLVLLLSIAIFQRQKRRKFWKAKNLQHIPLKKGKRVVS",
  "experiment": "shotgun alanine mutagenesis, FACS on HEK-293T cells, antibody 0.5 µg/ml",
  "description": "In order to further identify specific binding residues within human beta klotho KL2 domain, shotgun mutagenesis was used to separately mutate individual residues of the KL2 domain of human beta klotho to an alanine (e.g., residues F508A-L1008A). […] For example, screening of the beta klotho mutant proteins was conducted at a concentration of 0.5 μg/ml for the humanized 5H23 antibody, 1.0 μg/ml for the Fab fragment, and 2.0 μg/ml for a positive control polyclonal anti-beta klotho antibodies.\nThe resulting mapping identified three specific binding residues, H657, Y701 and R703, which were negative for binding by the humanized 5H23 antibody, but were positive for the control polyclonal anti-beta klotho antibodies. These residues represented amino acids whose side changes made the highest energetic contributions to the antibody-epitope interation as shown in Table 31. The locations of the three identified residues were modeled by showing them (dark spheres) at the equivalent positions on human cytosolic beta-glucosidase (PDB ID #2JFE; Tribolo et al., J. Mol. Biol. 370, 964-975 (2007)), identified by BLAST alignment of the two proteins as shown in FIG. 6.",
  "data": [
    {"binder": "humanized 5H23 antibody (VH SEQ ID NO: 271 and VL SEQ ID NO: 276) (antibody, V domains shown, also called h5H23; h5H23 (Prep 1)) VH: QVQLQQSGAEVKKPGASVKVSCKASGYTFTSYDINWVRQAPGQGLEWIGWIYPGDGSTKYNEKFKGKATITRDTSASTAYMELSSLRSEDTAVYFCARSDYYGSRSFAYWGQGTLVTVSS VL: DIVMTQSPDSLAVSLGERATINCRASKSVSTSGYVYMHWYQQKPGQPPKLLIYLASYLESGVPDRFSGSGSGTDFTLTISSVQAEDVAVYYCQHSRDLTFPFGGGTKLEIK", "values": [
      {"measurement": "Binding Reactivity (% WT)", "value": 16.9, "unit": "% WT"}
    ]}
  ]
}
